Experimental data as given in publication PMC12473987.

Target: strep-HA3/B (Clostridium botulinum serotype B strain Okra)
Assay: SEC; […], PBS pH 6.0, 0.75 mL/min, […]

**Q.** For strep-HA3/B (domain or fragment), which stoichiometry N is on record?
**A.** Its stoichiometry N is 3.
